For this assay, the target named is LBD fragment of human Nur77 (residues 351–598) (human), P22736. In words: SPR. The settings on record: S-pentenyl-alanine (S5) at the i and i + 4 positions (Phe163 & Ile167), joined by ring-closing olefin metathesis (all-hydrocarbon staple), C-terminal primary amide X8 and X12 = S5 (S-pentenyl-alanine, replacing Phe163 and Ile167 of PPARγ), joined by an i,i+4 all-hydrocarbon staple (ring-closing olefin metathesis), free N-terminal amine, Tyr14 replaces Leu169, residues 15-25 are t, modification not given.

Bridges are numbered along the chain shown (N, C = ends). [ ]: non-standard residue; d: D form. S5 = C=CCCC[C@](C)(N)C(=O)O

A word on the koff: it is the first-order rate constant of dissociation.

LBD fragment of human Nur77 (residues 351–598) (human), P22736, sequence (P22736 351-598): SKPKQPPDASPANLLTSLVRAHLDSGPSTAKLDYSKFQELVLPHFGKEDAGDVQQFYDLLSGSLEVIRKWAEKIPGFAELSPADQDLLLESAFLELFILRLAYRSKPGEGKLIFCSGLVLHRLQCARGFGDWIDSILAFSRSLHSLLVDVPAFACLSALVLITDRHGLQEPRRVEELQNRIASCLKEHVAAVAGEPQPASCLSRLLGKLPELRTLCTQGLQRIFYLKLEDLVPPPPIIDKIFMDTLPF

On to H-CEGCKGF[S5]RRT[S5]RYYGRKKRRQRRR-NH2 (staple 8-12; cysteine pairing not given here) [ST-CY14 (stapled T-CY14), P37231 156-169], for which the koff amounted to 0.052 s⁻¹.

Source of the values: publication PMC11234460, “In Silico Discovery of Stapled Peptide Inhibitor Targeting the Nur77‐PPARγ Interaction and Its Anti‐Breast‐Cancer Efficacy” (Advanced Science, 2024).
